These are literature values, as cited in article PMC4716630.

The data set has as its target hMSH2 (Homo sapiens) (UniProt P43246).

NKG2D, sequence (P26718 whole entry): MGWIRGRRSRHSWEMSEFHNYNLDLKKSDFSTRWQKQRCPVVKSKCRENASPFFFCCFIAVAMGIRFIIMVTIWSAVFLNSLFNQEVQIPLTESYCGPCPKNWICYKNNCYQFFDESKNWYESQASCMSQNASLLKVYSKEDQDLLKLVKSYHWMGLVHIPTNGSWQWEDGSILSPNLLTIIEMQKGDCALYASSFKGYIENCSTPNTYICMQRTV
hMSH2 (Homo sapiens), sequence (P43246 2-934): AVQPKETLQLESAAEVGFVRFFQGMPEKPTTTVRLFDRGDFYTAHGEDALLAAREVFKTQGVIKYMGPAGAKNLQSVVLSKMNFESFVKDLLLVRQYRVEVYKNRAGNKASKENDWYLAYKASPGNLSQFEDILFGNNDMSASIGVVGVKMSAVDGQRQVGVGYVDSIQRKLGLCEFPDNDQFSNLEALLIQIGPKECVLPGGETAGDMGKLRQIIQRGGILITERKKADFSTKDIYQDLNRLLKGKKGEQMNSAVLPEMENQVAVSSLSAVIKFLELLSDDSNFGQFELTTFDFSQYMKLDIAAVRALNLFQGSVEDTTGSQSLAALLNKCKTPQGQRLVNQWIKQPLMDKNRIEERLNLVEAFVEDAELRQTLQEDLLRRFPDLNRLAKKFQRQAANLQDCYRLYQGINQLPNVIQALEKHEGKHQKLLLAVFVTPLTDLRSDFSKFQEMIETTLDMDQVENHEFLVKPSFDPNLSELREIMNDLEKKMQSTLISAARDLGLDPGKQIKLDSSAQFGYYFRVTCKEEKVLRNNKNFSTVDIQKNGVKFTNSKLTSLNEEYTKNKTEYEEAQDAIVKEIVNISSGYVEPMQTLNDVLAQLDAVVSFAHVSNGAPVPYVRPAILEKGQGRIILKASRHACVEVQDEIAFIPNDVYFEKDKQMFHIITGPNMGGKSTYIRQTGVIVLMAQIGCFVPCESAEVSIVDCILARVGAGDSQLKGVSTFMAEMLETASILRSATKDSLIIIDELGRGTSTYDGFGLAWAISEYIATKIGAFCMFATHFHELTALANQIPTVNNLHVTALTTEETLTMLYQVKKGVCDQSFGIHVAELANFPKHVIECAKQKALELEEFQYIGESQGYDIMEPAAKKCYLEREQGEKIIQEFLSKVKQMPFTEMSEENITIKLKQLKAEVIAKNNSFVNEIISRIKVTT

The Kd is the concentration at which binding is half-saturated. With NKG2D (from UniProt P26718), the equilibrium dissociation constant (Kd) was 132 nM.
